Assay [1] addresses T1, Mcm2-7 replicative DNA helicase, loaded on origin DNA and phosphorylated by DDK (S. cerevisiae, UniProt P29469 1-868; P24279 1-971; P30665 1-933; P29496 1-775; P53091 1-1017; P38132 …).
T1 construct: Mcm2 subunit of Mcm2-7, S. cerevisiae; Mcm3 subunit of Mcm2-7, S. cerevisiae; Mcm4 subunit of Mcm2-7, S. cerevisiae; Mcm5 subunit of Mcm2-7, S. cerevisiae; Mcm6 subunit of Mcm2-7, S. cerevisiae; Mcm7 subunit of Mcm2-7, S. cerevisiae; In the assays the complex was loaded on origin DNA and treated with DDK; also called Mcm2-7 complex; loaded Mcm2-7; source: Mcm2-7/Cdt1 purified as previously …
Nature of the assay: pull-down; CMG formation assay: Mcm2-7 loaded on bead-attached origin DNA (pUC19-ARS1) and treated with DDK; S-CDK, Sld2, Dpb11, Pol ε, GINS, Mcm10, Sld3/7 and 50 nM Cdc45 added, no Pol α-primase; 30 min at 25°C; beads washed with buffer H + 0.3 M KCl, 0.02% NP-40 (salt-stable complexes); proteins released with DNase and detected by immunoblot; amounts relative to wild type. As to conditions: both partners purified. (In general: Immunoblotting shows a protein as a band on a membrane.)

Assay [2] addresses T1, Mcm2-7 replicative DNA helicase, loaded …. Nature of the assay: pull-down; reconstituted DNA replication assay: Mcm2-7 loaded on bead-attached origin DNA (pARS1-Nco) and treated with DDK; S-CDK, Sld2, Dpb11, Pol α-primase, Pol ε, RPA, GINS, Mcm10, Sld3/7 and 130 nM Cdc45 added; 1 h at 25°C; beads washed with buffer H + 0.3 M K-Glut, 0.02% NP-40; proteins released with DNase and detected by immunoblot; amounts relative to wild type. As to conditions: both partners purified.

B1: Cdc45-124 (DAH->AAA) (natural protein, S. cerevisiae, UniProt Q08032 1-650, looked up)
chain: MYYGISQFSEAYNKILRNSSSHSSCQLVIFVSCLNIDALCATKMLSLLFKKQLVQSQIVPIFGYSELRRHYSQLDDNINSLLLVGFGGVIDLEAFLEIDPQEYVIDTDEKSGEQSFRRDIYVLAAARPWNLDNIFGSQIIQCFDDGTVDDTLGEQKEAYYKLLELDEESGDDELSGDENDNNGGDDEATDADEVTDEDEEDEDETISNKRGNSSIGPNDLSKRKQRKKQIHEYEGVLEEYYSQGTTVVNSISAQIYSLLSAIGETNLSNLWLNILGTTSLDIAYAQVYNRLYPLLQDEVKRLTPSSRNSVKTPDTLTLNIQPDYYLFLLRHSSLYDSFYYSNYVNAKLSLWNENGKKRLHKMFARMGIPLSTAQETWLYMDHSIKRELGIIFDKNLDRYGLQDIIRDGFVRTLGYRGSISASEFVEALTALLEVGNSTDKDSVKINNDNNDDTDGEEEEDNSAQKLTNLRKRWVSNFWLSWDALDDRKVELLNRGIQLAQDLQRAIFNTGVAILEKKLIKHLRIYRLCVLQDGPDLDLYRNPLTLLRLGNWLIECCAESEDKQLLPMVLASIDENTDTYLVAGLTPRYPRGLDTIHTKKPILNNFSMAFQQITAETDAKVRIDNFESSIIEIRREDLSPFLEKLTLSGLL
notes: Cdc45, Saccharomyces cerevisiae, clustered alanine mutant; mutants are numbered by the position of the first mutated amino acid; also called Cdc45-ts
Consider B1, for which the “stable CMG complexes, percent of wild-type Cdc45” value (“stable CMG complexes, percent” for short) in assay [1] is 67 % of wild-type Cdc45.

B2: Cdc45-485 (DDRK->AAAA) (natural protein, S. cerevisiae, UniProt Q08032 1-650, looked up)
chain: MYYGISQFSEAYNKILRNSSSHSSCQLVIFVSCLNIDALCATKMLSLLFKKQLVQSQIVPIFGYSELRRHYSQLDDNINSLLLVGFGGVIDLEAFLEIDPQEYVIDTDEKSGEQSFRRDIYVLDAHRPWNLDNIFGSQIIQCFDDGTVDDTLGEQKEAYYKLLELDEESGDDELSGDENDNNGGDDEATDADEVTDEDEEDEDETISNKRGNSSIGPNDLSKRKQRKKQIHEYEGVLEEYYSQGTTVVNSISAQIYSLLSAIGETNLSNLWLNILGTTSLDIAYAQVYNRLYPLLQDEVKRLTPSSRNSVKTPDTLTLNIQPDYYLFLLRHSSLYDSFYYSNYVNAKLSLWNENGKKRLHKMFARMGIPLSTAQETWLYMDHSIKRELGIIFDKNLDRYGLQDIIRDGFVRTLGYRGSISASEFVEALTALLEVGNSTDKDSVKINNDNNDDTDGEEEEDNSAQKLTNLRKRWVSNFWLSWDALAAAAVELLNRGIQLAQDLQRAIFNTGVAILEKKLIKHLRIYRLCVLQDGPDLDLYRNPLTLLRLGNWLIECCAESEDKQLLPMVLASIDENTDTYLVAGLTPRYPRGLDTIHTKKPILNNFSMAFQQITAETDAKVRIDNFESSIIEIRREDLSPFLEKLTLSGLL
notes: as for B1
On to B2, for which the “stable CMG complexes, percent” value in assay [1] was 43 % of wild-type Cdc45. Also, the “percent of wild-type Cdc45 association” value in assay [2] was 27 % of wild-type Cdc45 association.

B3: Cdc45-238 (EEY->AAA) (natural protein, S. cerevisiae, UniProt Q08032 1-650, looked up)
chain: MYYGISQFSEAYNKILRNSSSHSSCQLVIFVSCLNIDALCATKMLSLLFKKQLVQSQIVPIFGYSELRRHYSQLDDNINSLLLVGFGGVIDLEAFLEIDPQEYVIDTDEKSGEQSFRRDIYVLDAHRPWNLDNIFGSQIIQCFDDGTVDDTLGEQKEAYYKLLELDEESGDDELSGDENDNNGGDDEATDADEVTDEDEEDEDETISNKRGNSSIGPNDLSKRKQRKKQIHEYEGVLAAAYSQGTTVVNSISAQIYSLLSAIGETNLSNLWLNILGTTSLDIAYAQVYNRLYPLLQDEVKRLTPSSRNSVKTPDTLTLNIQPDYYLFLLRHSSLYDSFYYSNYVNAKLSLWNENGKKRLHKMFARMGIPLSTAQETWLYMDHSIKRELGIIFDKNLDRYGLQDIIRDGFVRTLGYRGSISASEFVEALTALLEVGNSTDKDSVKINNDNNDDTDGEEEEDNSAQKLTNLRKRWVSNFWLSWDALDDRKVELLNRGIQLAQDLQRAIFNTGVAILEKKLIKHLRIYRLCVLQDGPDLDLYRNPLTLLRLGNWLIECCAESEDKQLLPMVLASIDENTDTYLVAGLTPRYPRGLDTIHTKKPILNNFSMAFQQITAETDAKVRIDNFESSIIEIRREDLSPFLEKLTLSGLL
notes: as for B1
Regarding B3, in assay [1], the “stable CMG complexes, percent” value is 55 % of wild-type Cdc45. In addition, the “percent of wild-type Cdc45 association” value in assay [2] is 20 % of wild-type Cdc45 association.

B4: GINS complex (Sld5, Psf1, Psf2, Psf3) (complex, S. cerevisiae)
chain 1: MDINIDDILAELDKETTAVDSTKITQGSSSTTHRDANTIVGSSLDLNDKTQIYVSPQQDFSDLMKSWKNERCSPELLPYPHQLMKRLLNRISMQSQLIENISMGFLDMQNASNANPPMPNESKLPLLCMETELERLKFVIRSYIRCRLSKIDKFSLYLRQLNEDENSLISLTDLLSKDEIKYHDTHSLIWLKLVNDSILKYMPEELQAINDTEGSVNMIDEPDWNKFVFIHVNGPPDGKWNEDPLLQENEFGKPCYTVTIPDLKEEVELTIGSIYVMRYEVIRDLLRDDKVALI
chain 2: MYGDLGNKLVLEAKRTKQLYARSNQDVNLPMYHEDIIRNILKEVSNLRKNTEYLKEQQQLGMLDDKVAKCQYFVTLLCMERNKRCLLAYQRLRTDILDSMAWNNNGLDLMSSITFSQQDTNNLSHQEQEYLKEYCDLITDLKSGDLVDIDLSGSLVPPSDVFIDVRVLKDAGEIQTEYGVFNLIKDSQFFVRQSDVERLIQQGYLQKI
chain 3: MSLPAHLQQTFSPEEIQFIVENEPIKIFPRITTRQKIRGDDRGTGNHTRWQLITTDDKALNNMVAMRSTEVVLWIALLLKQQSKCSIVAPQWLTTKELDRKIQYEKTHPDRFSELPWNWLVLARILFNKAKDDFHDPIHELRGKIQDLREIRQIKVLKGLKYLNESHLQLDNLSLLEINELRPFITEIMDKLREIHTASLTAGTENDEEEFNI
chain 4: MGYYDIDDVLADGTEFPCKFQYDIPGLGYLENNPGRPITKNTKLSLPLWLARILAIVGGDEALVDEEPVPFVELLPPDMFSTKVMNAIKTDPVALDLHSINSHFFSLAIKWIMLFSEKELANVVSELLLQRAQELNHHASSLSIDLNADSTGKNSANTNIATSTFLLKLEEMEKEIYKKSHESYKDTKRWMFKK
notes: Sld5 subunit of GINS, S. cerevisiae; Psf1 subunit of GINS, S. cerevisiae; Psf2 subunit of GINS, S. cerevisiae; expressed as Psf2-3C-6xHis-Flag, tag removed with HRV 3C protease; Psf3 subunit of GINS, S. cerevisiae; not shown: 6xHis, C-terminal, cleaved; Flag, C-terminal, cleaved; copies: + + +
With B4, in assay [2], the binding result is “binds”.
